Fewer inactive variants are shown than the library holds.
B1: TPR 5TU (parent)
chain: GGAUCUUCUCGAUCUAACAAAAAAGACAAAUCUGCCACAAAGCUUGAGAGCAUCUUCGGAUGCAGAGGCGGCAGCCUUCGGUGGCGCGAUAGCGCCAACGUUCUCAACUAUGACACGCAAAACGCGUGCUCCGUUGAAUGGAGUUUAUCAUG

Variants of: B1
Test: polymerase ribozyme fitness, log enrichment relative to wild type (log ratio); higher = more active; in vitro selection for triplet polymerase activity
How it was run: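 Each subunit of a heterodimeric triplet polymerase ribozyme was represented by a PCR-built, transcribed mutant library that underwent triplicate single-round in vitro selection with frozen incubation at −7 °C. Extended constructs were recovered by gel excision, streptavidin-bead capture and RT-PCR, and Illumina sequencing of input and output libraries kept genotypes with ≥10 input reads and ≥1 read per output. Fitness is the logarithm of genotype enrichment relative to wild-type enrichment, from inverse-variance-weighted replicate averages, with a logarithm base of 2.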

Variant | polymerase ribozyme fitness (log ratio)
C18A A20U A47G A52C G65A G83U U101C G136U | ≤ -4.2
C18U G48U C85A U144C | -2.83
C18G U55A C85G | -2.84
A19C U55G C93U G136U | -3.02
C18A A20C U53C G59U C93G U148C | -4.14
C18G U82C C85A A142C | -2.92
C18G U53A U61A A137C | ≤ -4.2
A19C G65U A73U G88A C114A U148C | ≤ -4.2
C18G C51U C85A A107U C118U A137U | ≤ -4.2
C18G | -0.169
C18U | -0.399
C18A | -0.302
C18G C27U A64C C93U | ≤ -4.2
C18A U31C A40C G62C A91C A119G | ≤ -4.2
C18G A29U U44G U55G C57A C93U U104G | ≤ -4.2
C18U A40U C85U C96U C116U | 0.0691
A19C U55G U90G | ≤ -4.2
A19C | 0.425
A19G | -0.472
C18A C36A G58A A64U C85A | ≤ -4.2
C18A G50A G68A C96G C99U G136A | ≤ -4.2
C18U C54U C57A G83U | -1.15
A19C A20G U55A G58U C85A G140C | ≤ -4.2
A19C U31A G92U | 0.391

Variant | polymerase ribozyme fitness (log ratio)
A19C U56A C85G U148A | -3.88
A19C G128C | -3
C18U A91G A120G C132U G141C | ≤ -4.2
C18G C32U G46C U53A C85U | ≤ -4.2
C18U C36U C75A C79U C118A C131U | ≤ -4.2
C18G U44A G83A C85A A98U U102G | ≤ -4.2
C18G G92A | -3.23
A19C U61G C93A | -4.05
C18U A26C C38U U78G A98U U145G U151A | ≤ -4.2
A19C U33A U55A U77G C123G | ≤ -4.2
C18U A52C G86A C99U U146G | -4.02
C18U A30U C99G A106U | ≤ -4.2
A19C G59A C76G C87U | ≤ -4.2
C18G C57U G59A G80A G86U | -2.45
C18U C35A A39U G50U U55G C108U | ≤ -4.2
C18G G50A A91G G94C C132G | ≤ -4.2
C18G C32G U55A G83U G88U A113C A138C | ≤ -4.2
C18G A21G G48U U82A G100A G136A | ≤ -4.2
C18A G83A A107C A110C | ≤ -4.2
C18G C57U G59A G80A G86U C108G C116U U145A C149G G152U | ≤ -4.2
C18U C32U G83U | -3.14
C18U G58C A73G C132A | -3.75
C18U G46U G94A C131U | -1.88
C18G A22G C27U A41U A49C C57A C93G G140C | -4.12

Variant | polymerase ribozyme fitness (log ratio)
C18U U55A A73G G86A G94C | ≤ -4.2
A19C A91U | -3.83
A19C A52C C85U C96U C108G G140C | ≤ -4.2
C18U U144C C149U | -4.09
C18U U78A G81U C87G U144A | ≤ -4.2
A17U U90G C103A | ≤ -4.2
C18U A113G C123A | -3.22
C18G C57A A147U | 0.567
A19C C32U A37G A52G C87G A89U U90A C125G U139G | ≤ -4.2
C18A A73G G83C C118U A150G | ≤ -4.2
A19C C38G G70A G80C A98G C118U A150U | -3.77
A19C C57A | 0.797
C18A C38A A47C C93A A98U | -3.69
C18G C32U A37G A60G C75U C96U | ≤ -4.2
A17U U53A | -0.974
C18U G58A | -0.517
C18U C32G C51U C87G | ≤ -4.2
A19C C35U A52C U53A C79A A97U A98G C118A U139G A147G | ≤ -4.2
C18A U56A C93A A137G | -4.08
A19C A26C C38A C43G G74U G80C | ≤ -4.2
A19C A22U C38G G58C C85U U102A | -1.87
C18G A22G A26U U31G U53A G68U C95U A115G | ≤ -4.2
A17U U127A | -3.29
C18G G83U C95U | -2.08

Variant | polymerase ribozyme fitness (log ratio)
C18U A60U G92U C93U C95U C125U | -4.09
C18G A24U G50U U53A A73G G92A | ≤ -4.2
C18A G86A C96U A115C | -2.7
A19C G80A C96U C99U G124A | 0.098
C18G A21U C35U C95U | -1.12
C18U C95U | -0.678
A19C G50A | -1.01
A19C C54G G94U U111A A115C C125U | ≤ -4.2
C18U C87U | -1.47
C18U U45C A120C | -0.849
C18U A26U U31A U53A G94U | ≤ -4.2
C18G C72G G84C | ≤ -4.2
C18G G58C G81A | -0.953
C18G C96U A119U | -0.786
C18U A22C A40U A89C | -0.248
C18G U61G U77G U82C C103G | ≤ -4.2
C18A C93U A113U A119C G140U | -4.1
C18G G141C | -1.51
C18G C123G | -0.253
A17U U55A G59C G94U C132G | ≤ -4.2
A19C A52G | -0.125
C18U A19G A21C C35U U55A G92C A147U | -2.94
C18U C87U C99G | -2.1
A19C C35A | -3.08

Variant | polymerase ribozyme fitness (log ratio)
C18U C38G A52G U101G | -1.69
C18G A19U G25U A89U G94A C131U | -3.92
A17U U77G C87G G92C A119C | ≤ -4.2
A17U U61G C76G | ≤ -4.2
C18U C57A C95U C96A | -1.46
C18G U61C C85G C95U | ≤ -4.2
C18U A19G G50A C54U G67C C69A G92C C114A A120U U134G | ≤ -4.2
A19C A20U C54A | -1.03
C18U G42A C85U C103U | -4.11
C18U A29U A91U A107U | ≤ -4.2
C18A A20U G25C G83A C87U U145A C149A | ≤ -4.2
C18U A22G A30G G34U G42U U77A C96A | ≤ -4.2
A19C C63U A120G U145A | 0.504
A19C U82G U109G C116A | -0.158
C18G A26C A107G | ≤ -4.2
C18G A41U A91G U148G | ≤ -4.2
C18G C76A C85U | -0.589
C18G A21U C93U G141U | 0.314
A19C C27G A28C G58C G59C A64C C85U | ≤ -4.2
C18A A20U A24G A26G A29U C57A U77A G88C | ≤ -4.2
A19C A66G | -3.95
C18G G84A | -1.41
C18U U31C A89C C93A G140U | ≤ -4.2
C18G A20C A22U U55G G62A | -3.57

Variant | polymerase ribozyme fitness (log ratio)
C18G C38U C72U | -0.0428
A19C A106C | 0.458
C18G C35U U55A G62U G68U C75U C96U | ≤ -4.2
C18G A19C U33G C36U G46A C87U A110G | ≤ -4.2
C18U A21G C99G A147U | -0.0193
C18U A49U | -1.09
C18A A73U G86A A110G | ≤ -4.2
A19C C51G U55G C93U G126C | -2.57
C18U G42C | ≤ -4.2
A19C G58C G88U A98G C103G | ≤ -4.2
C18U G34C U44A C75G C96A C99G A119C | ≤ -4.2
C18A A20G A24C C27G U82C G126U | ≤ -4.2
C18U A41G G46A U56G C85A U135G U144C | ≤ -4.2
A19C C96U G124C | -0.582
A19C A23G A30C A91G A138U U139G | -4.05
C18U G140U | -3.29
C18U C51A A52G A122C | -1.98
C18U C32U A41G G48A G68C C87U G94U A107G C149A A150G | ≤ -4.2
C18G A21G A23C A40U G70A C79G C87G G117C | ≤ -4.2
A19C A49C A60G U101G G141A | -2.8
A19C G62A C85A A137U U151A | ≤ -4.2
A19C G50C A52G | -2.64
C18U G74C C96A | ≤ -4.2
A17U U90A U102A U127A A137G A138C U151A | ≤ -4.2

Variant | polymerase ribozyme fitness (log ratio)
C18G G46U A73U C85U G92U C125A | ≤ -4.2
C18G G42C C87U A138C U145A | ≤ -4.2
A19C A22U C57G C87U G94U C103G U104G C129A | ≤ -4.2
C18G A20C U56G G94A | -1.51
C18U A19C A30C A47U U56A G67C G70A C85G C87A C96U A142C | ≤ -4.2
A19C G59A G84U A98G A115U | -3.52
A19C G83U | 0.141
C18U C85A | -0.837
C18U C51A U53A C57U G59C C95A | -4.09
C18G A40U A47U U101G | -0.397
A19C C95A C96U C125G C149U | ≤ -4.2
A19C A28C A52G U56A G83A A142C | ≤ -4.2
C18U G92U A97G U146A | -2.16
C18U A52C U145G | -2.09
A19C G67C | ≤ -4.2
C18G C54U U61G C87U C95U | -3.85
C18U C36A C38A U55A G84U | ≤ -4.2
C18G A21U | -0.776
C18U A89C A91G A122U C125A U134C | ≤ -4.2
C18U A60G G62A G86A C149U | -3.44
C18G C27G U53G A120C | ≤ -4.2
A19C U56A G65A C87U A97U | -1.81
C18G G88A G100C C103G | ≤ -4.2

Reference: the RNAGym collection of RNA variant scans (doi:10.1073/pnas.2313332121)
